Test [1] has as its target IscU^N–GFP (E. coli K-12) (UniProt P0ACD4). Kind of test: split reporter (BiFC, NanoBiT); BiFC by reconstitution of GFP from N-GFP and C-GFP fusions co-expressed in E. coli BL21(DE3) Gold; fluorescence microscopy of cells on agarose slides, normalised to empty vectors.
Test [2] addresses IscS^C–GFP (E. coli K-12) (UniProt P0A6B7). The test is described as above.

This is an account of results in publication PMC8117158.

Sequence of UniProt P0ACD4 (P0ACD4 whole entry, the tested form may be a part): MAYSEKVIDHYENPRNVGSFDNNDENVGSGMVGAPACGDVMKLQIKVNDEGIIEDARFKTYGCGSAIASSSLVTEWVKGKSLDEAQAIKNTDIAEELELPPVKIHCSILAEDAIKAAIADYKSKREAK
Sequence of UniProt P0A6B7 (P0A6B7 whole entry): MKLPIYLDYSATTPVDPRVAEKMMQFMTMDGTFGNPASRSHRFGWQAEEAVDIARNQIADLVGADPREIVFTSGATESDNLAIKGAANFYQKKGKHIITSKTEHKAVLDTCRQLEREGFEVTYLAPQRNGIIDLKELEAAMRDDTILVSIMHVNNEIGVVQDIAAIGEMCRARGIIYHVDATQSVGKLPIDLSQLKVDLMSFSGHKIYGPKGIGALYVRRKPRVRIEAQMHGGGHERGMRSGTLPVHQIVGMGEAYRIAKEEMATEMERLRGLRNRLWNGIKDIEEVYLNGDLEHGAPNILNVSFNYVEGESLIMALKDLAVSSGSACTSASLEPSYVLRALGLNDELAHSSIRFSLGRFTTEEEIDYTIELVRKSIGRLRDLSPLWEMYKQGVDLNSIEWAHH

The substance “YtfE^C–GFP (from UniProt P69506 1-220) (natural protein)” gave a fold fluorescence over the control in test [1] of 3 fold.

With “YtfE^N–GFP (from UniProt P69506 1-220) (natural protein)”, the fold fluorescence over the control in test [2] is 6 fold.
